Series [1] concerns the molecule itself. Nature of the series: BLI (forteBIO Octet RED96), antibody captured on ProA biosensor, self-association in acetate buffer pH 5.5; acetate at pH 5.5; self-association. On the procedure:
(§1) Self-association binding constant: At high concentrations, undesirable solution properties such as self-association can pose significant challenges to preparation development. In addition to potential manufacturing and delivery challenges, self-associating substances can also affect biological activity and pharmacokinetic properties.
(§2) The self-association binding constants were measured using the forteBIO Octet technique (Octet RED96). The antibodies were diluted to 150 ug/mL with an acetate buffer (pH 5.5), and then added to sample plates (forteBIO, Greiner, PN655209). A ProA biosensor (forteBIO) was used to capture antibodies. Measurements were performed using basic dynamics under the following settings: baseline 60/load 900/baseline 60/association 300/dissociation 300. The association (Kon) and dissociation (Kdis) rate constants of the target antigen were calculated and used to obtain the dissociation constant (KD). All calculations were performed using software provided by forteBIO.

Series [2] deals with the molecule itself. The experiment in a line: BLI (forteBIO Octet RED96), antibody captured on ProA biosensor, self-association in acetate buffer pH 5.5. On the procedure:
as §1, §2
(In general: In BLI a coated tip is dipped into the sample, and binding shifts an interference pattern.)

Three proteins from patent US20230406915A1 (HJB HANGZHOU, published 2023) can be followed below.

B1: M-751 (antibody, V domains shown)
VH: QVQLVQSGAEVKKPGSSVKVSCKASGYTFTNYWMNWVRQAPGQGLEWMGMIHPSDSETRLNQKFQGRVTITVDKSTSTAYMELSSLRSEDTAVYYCAREGRLGLRSYAMDYWGQGTLVTVSS
VL: DIQMTQSPSSLSASVGDRVTITCRSSQSLLNSSNQKNYLAWYQQKPGKVPKLLIYFASTRESGVPSRFSGSGSGTDFTLTISSLQPEDVATYFCQQHYITPLTFGGGTKVEIKR
notes: also called candidate antibody
Broadly, the Kd is a measure of binding affinity in units of concentration. On to B1, for which binding in series [1] was characterised by a dissociation constant (Kd) of 438 µM.

B2: M-747 (antibody, human IgG1, kappa, V domains shown)
VH: QVQLVQSGSELKKPGASVKVSCKASGYTFTNYWMNWVRQAPGQGLEWMGMIHPSDSETRLNQKFKDRVTITVDKSTSTAYMELSSLRSEDTAVYYCAREGRLGLRSYAMDYWGQGTLVTVSS
VL: DIVMTQSPDSLAVSLGERATINCKSSQSLLNSSNQKNYLAWYQQKPGQPPKLLVYFASTRESGVPDRFSGSGSGTDFTLTISSLQAEDVAVYFCQQHYITPLTFGGGTKVEIKR
notes: Humanized anti-DKK2 parental antibody; also called parental antibody; parental molecule
With B2, binding in series [2] was characterised by a dissociation constant (Kd) of 208 µM.

B3: M-755 (antibody, V domains shown)
VH: QVQLVQSGAEVKKPGASVKVSCKASGYTFTNYWMNWVRQAPGQGLEWMGMIHPSDSETRLNQKLQGRVTITVDKSTSTAYMELRSLRSDDTAVYYCAREGRLGLRSYAMDYWGQGTLVTVSS
VL: DIQMTQSPSSLSASVGDRVTITCRSSQSLLNSSNQKNYLAWYQQKPGKAPKLLIYFASTRESGVPSRFSGSGSGTDFTLTISSLQPEDFATYFCQQHYITPLTFGGGTKVEIKR
notes: as for B1
Regarding B3, the Kd in series [2] was determined as 456 µM.
